In PMC11342882:

Biological target: FcRn with a C-terminal 6×His-tag and complexed with beta-2-microglobulin (UniProt P55899)
Experiment: BLI

Sequence of FcRn with a C-terminal 6×His-tag and complexed with beta-2-microglobulin (P55899 24-297, chain 1 of 2): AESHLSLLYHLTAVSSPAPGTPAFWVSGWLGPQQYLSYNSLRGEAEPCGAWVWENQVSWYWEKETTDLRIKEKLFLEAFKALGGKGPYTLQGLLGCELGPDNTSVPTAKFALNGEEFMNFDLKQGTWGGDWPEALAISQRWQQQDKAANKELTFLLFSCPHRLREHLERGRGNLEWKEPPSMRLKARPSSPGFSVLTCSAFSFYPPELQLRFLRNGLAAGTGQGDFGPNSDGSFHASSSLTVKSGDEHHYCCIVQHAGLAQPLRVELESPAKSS
Sequence of FcRn with a C-terminal 6×His-tag and complexed with beta-2-microglobulin (P61769 21-119, chain 2 of 2, further chain): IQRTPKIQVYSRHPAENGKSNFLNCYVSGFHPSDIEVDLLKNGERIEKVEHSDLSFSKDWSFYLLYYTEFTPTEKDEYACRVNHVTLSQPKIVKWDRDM

Substance | Kd [nM]
sACE2_(2).v2.4-IgG1 (from UniProt Q9BYF1-1 18-732) (Fc fusion) | > 100
sACE2_(2).v2.4-IgG1(YTE) from Expi293F (from UniProt Q9BYF1-1 18-732) (Fc fusion) | 21
